Test results from paper PMC8896826, “Cellular assays identify barriers impeding iron-sulfur enzyme activity in a non-native prokaryotic host” (eLife, 2022).

Biological target: T1, tryptophan 2-C-methyltransferase (TsrM) from Streptomyces laurentii (Streptomyces laurentii, UniProt C0JRZ9 1-599)
T1 construct: TsrM, tryptophan 2-C-methyltransferase of the thiostrepton synthesis pathway, Streptomyces laurentii; As purified it holds 0.9 cobalamin and 3.5 Fe per monomer ([4Fe-4S] cluster); The methods describe no TEV cleavage for TsrM, so the His-tag was probably still on the protein; also called cobalamin-dependent rSAM methyltransferase TsrM; source: E. coli BL21(DE3), coexpressed with the Btu operon, …
T1 sequence (looked up): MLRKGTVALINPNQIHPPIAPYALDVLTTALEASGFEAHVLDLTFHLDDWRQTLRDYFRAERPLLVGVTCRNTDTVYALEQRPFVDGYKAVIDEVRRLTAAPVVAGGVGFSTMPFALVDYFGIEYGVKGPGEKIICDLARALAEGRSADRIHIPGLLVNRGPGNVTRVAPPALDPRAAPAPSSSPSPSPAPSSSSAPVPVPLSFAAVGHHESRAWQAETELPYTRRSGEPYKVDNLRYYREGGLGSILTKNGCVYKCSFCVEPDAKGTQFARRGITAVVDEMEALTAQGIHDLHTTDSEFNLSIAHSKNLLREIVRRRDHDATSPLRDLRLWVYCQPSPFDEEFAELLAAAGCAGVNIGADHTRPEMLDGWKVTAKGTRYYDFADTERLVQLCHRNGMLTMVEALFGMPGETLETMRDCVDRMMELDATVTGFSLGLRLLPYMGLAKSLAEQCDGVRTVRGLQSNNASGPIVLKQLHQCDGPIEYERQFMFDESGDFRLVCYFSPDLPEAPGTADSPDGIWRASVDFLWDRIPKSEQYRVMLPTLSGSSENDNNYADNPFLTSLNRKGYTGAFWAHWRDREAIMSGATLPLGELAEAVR
Test: BLI; biotinylated ferredoxins (10 µg/mL) bound to streptavidin biosensors, plunged into TsrM solution at various concentrations (80 s association, 60 s dissociation); BLItz system in an anaerobic chamber (O2 <2 ppm); 25 mM Hepes pH 7.5, 300 mM KCl, 5% glycerol with Tween 20 and BSA
Conditions: both partners purified

B1: Streptomyces cattleya ferredoxin Fdx1 (natural protein, UniProt F8K3M7 1-106, looked up)
chain: MTYVIAQPCVDVKDKACIEECPVDCIYEGQRSLYIHPDECVDCGACEPVCPVEAIFYEDDTPEEWKDYYKANVEFFDELGSPGGASKLGLIERDHPFIAALPPQNG
modifications: biotin (incubation with one equivalent of NHS-PEG4-Biotin)
notes: ferredoxin Fdx1 of Streptomyces cattleya, GenBank AEW96347.1; 7.4 Fe atoms per monomer after reconstitution (two [4Fe-4S] clusters); also called double-cluster [4Fe-4S] ferredoxin; not shown: His-tag, N-terminal, cleaved
A Kd of 40 µM was found for B1 in this work.
